This note sets out measurements from patent US8536230B2, “Methods for regulating gelation of polysaccharide solutions and uses thereof” (University of Virginia Patent Foundation, priority 2006, dated 2013).

This data set is described as follows: In vitro release of FITC-dextran / FITC-albumin from chitosan-AHP gels in PBS. The class given is physicochemical. The settings on record: FITC albumin loaded (1, 2, and 3%) gels, PBS 37° C. The protocol: FITC dextran loaded samples (0.5×1 cm) were placed in histology cups and incubated in 50 mL PBS at 37° C. in a shaking water bath. At predetermined time points, 5 mL of the release media was removed and replenished with 5 mL of PBS. The FITC dextran concentration was determined spectrophotometrically and the percentage cumulative release was calculated. The three groups include 1% dextran, 0.5% dextran, and 0.5% dextran diluted. (see FIG. 8A).
For FITC-dextran loading, appropriate amounts (0.5, 1, and 5% w/v) of FITC-dextrans were dissolved in chitosan-AHP solutions. The respective dextran loaded solutions were poured into petri dishes and allowed to set at 37° C. for 12 h. Circular discs (8 mm diameter) were bored from the thermo-gelled films for in vitro release studies. […] The FITC-dextran concentration in the release media were determined spectrophotometrically at 491 nm and the percentage cumulative release was calculated based on the total FITC-D content. Statistical significance (p<0.05) was determined using one way ANOVA.
Also tested was the release profile of FITC-labeled bovine serum albumin from chitosan-AHP gels represented as the percentage cumulative release. […] The FITC albumin concentration was determined spectrophotometrically and the percentage cumulative release was calculated. […]

Regarding “FITC-albumin: FITC-labeled bovine serum albumin loaded in chitosan-AHP gels”, the “percentage cumulative release profile” value is “significantly lower compared to FITC-Dextran”.
